Laboratory results: the DeepSol protein solubility set

Experiment: soluble on expression in E. coli; label from the status in PepcDB or PDB records
For “MHMKLDDITYMNPWWEGKEDYHVKQWEKQKVHWEPKWIREISLKPFSLNFVLGPRQVGKTTGIKLLIQKILEENPPESVLYLNLEILPTYRELLDIIREFQELKKEEGIKTGYIFLDEASSLEGWWRGVKPLIDSGLLENDVITVTGSSSLRVRRDIELFPGRRGGGKTLEVMPLSFPEYARVMGLKKHKLEGSKVIKLFEKYIQTGGFPGSINGFPMEDLLGAYIGEFVRFGKSLEIAKEIFSALIRSAPSATSFRALAEMTSGYSYKVVQDYIEFFRDLYILGMAYLKQGNQVMYRREKKFFFRDPLLAKLFSLWSGTEIGKDALYEWIVQEHVFRKFGEIHYFRNSYEIDIIASDMKIEVKAGKAHRKYPRGVKVLEKEDVPFFLIELYNEDC”, the “soluble on expression in E. coli” value was “soluble”. For “MGSDKIHHHHHHMTKPLINLVHANGFPAGSYKTFLQEFDNDFRTIAHNQFGHNVLYPIHNNWQHLVTELVEFIKKQDEKVICVGHSFGGVISFIAACQHPELFRGLVMLDPPVVTGAFSHLLSFIKRTPYIDKLSPAGKAKTRQNQWPENTNLVDYFSQKTLFKNFDSRCLQDYASSSVVLRNKRLELSFSPAVEADIFRHLPTNLVKYKNKLTVPAKLIYGEKTQIFPIKHFVRFAKLNDIELMTLPNGGHMFPLEQPENTANMVKQIIKDW”, the “soluble on expression in E. coli” value was “not soluble”. For “MDRVIAAQVYLRICELGSLSAAARALGMSRPMVSRYLEQMESWAGARLIHRSTRRLTLTPAGEKVLLKTRGLTRIADEIAGERQRADPSGTLRVACAHFTAMQLISPLLPDFLARYPLLRLELDINNHPVSLIGERIDVAIRITDNPEAGAIARRLGVCRSLLCAAPGWMRQHGPLTTPDDLQRHNCLLYSHFASQHWQFSDAQGREASVAVNGNLSAGISSLLLEAAVAGCGIAMLPELEARGAIASGTLEVVLPEWTPKALSVYGIYLSRDYQPDGLPLFLDALQRRLGEETGHG”, the “soluble on expression in E. coli” value was “not soluble”. For “MARKRIITPEKKELIRNLISEYNITSAKDLQEALKDLLGDTIQNMLEAELDEHLGYEKYESTEEAKSNYRNGYTSKTLKSSVGQVEIDIPRDRNAEFEPKIVPRYKRDISEIENKIIAMYARGMSTREINEQIQEIYGFEVSAEMVSKITDKILPEIEEWQKRPLGEVYPIVFIDAIHFSVKNDGIVGKKAIYIVLAIDIEGQKDVIGIYVGENESSKFWLSVLNDLKNRGVKDILILCADALSGIKDAINAAFPNTEYQRCIVHQIRNTLKYVSDKDRKEFARDLKRIYTAPNEKAGYDQMLEVSEKWEKKYPAAMKSWKSNWDVICPFFKYSEELRKIMYTTNTIESLNSSYRRINKSRTVFPGDQSLLKSIYLATVKITSKWTMRYKNWGLILGQLQIMFEGRI”, the “soluble on expression in E. coli” value was “not soluble”. For “MQYKLILNGKTLKGETTTEAVDAATAEKVFKQYANDNGVDGEWTYDDATKTFTVTEGSHHHHHHMHRDSCPLDCKVYVGNLGNNGNKTELERAFGYYGPLRSVWVARNPPGFAFVEFEDPRDAADAVRELDGRTLCGCRVRVELSNGEKR”, the “soluble on expression in E. coli” value was “soluble”. With “MMSKIFDLVVIGAGSGGLEAAWNAATLYKKRVAVIDVQMVHGPPFFSALGGTCVNVGCVPKKLMVTGAQYMEHLRESAGFGWEFDRTTLRAEWKNLIAVKDEAVLNINKSYDEMFRDTEGLEFFLGWGSLESKNVVNVRESADPASAVKERLETEHILLASGSWPHMPNIPGIEHCISSNEAFYLPEPPRRVLTVGGGFISVEFAGIFNAYKPKDGQVTLCYRGEMILRGFDHTLREELTKQLTANGIQILTKENPAKVELNADGSKSVTFESGKKMDFDLVMMAIGRSPRTKDLQLQNAGVMIKNGGVQVDEYSRTNVSNIYAIGDVTNRVMLTPVAINEAAALVDTVFGTTPRKTDHTRVASAVFSIPPIGTCGLIEEVASKRYEVVAVYLSSFTPLMHKVSGSKYKTFVAKIITNHSDGTVLGVHLLGDNAPEIIQGIGICLKLNAKISDFYNTIGVHPTSAEELCSMRTPSYYYVKGEKMEKPSEASL” the “soluble on expression in E. coli” value was “soluble”. For “MAHHHHHHMKRSRFDGKAPSFAPAVTMHPQQQQRIEERGANNRVVVNSPYGCSRARYGWGMPFHTPLLAYVPGCPAIHIGISSLSGVPGRDRRMKTLFAQYAKKFNSLEHCYTFHNMGEETMWKNWRDMCASQLVASSSHSPASLGCVQTSDNGNQKSPPFIFSIKANQYLTHTRMLAIDDKSEEHIMHFFVNRCSILGRHLGPVLLQLPPQFQKNHVNMERIEAVAARIPKAFSVAVEFRHRSWYDEGVYALLRRLGWALVVAHHHDDPTASVHVDTGVDFMYVRLHGPIGLHIGDYGPVILSQWAERVVDYICGGVVSAAAADQSQPMAVNAHGREVYFFFNNSDSHVGGTTSSTVDATFLAQRVGELLAEKSRSCMVADSQSNSCSDVDVVTIISE”, the “soluble on expression in E. coli” value was “soluble”. For “MGSDKIHHHHHHMPRYQHIARQLKTAIEQGELAPGTRLPSSRTWAQELGVSRATVENAYGELVAQGWLERRGQAGTFVSNALRFETAPPIPAVFAGESPEPKPFQMGLPALDLFPREKWARVMGRRLRTQTCFDLALGDVCGEAILRQAIVDYLRVSRSIECLPEQVFITSGYADSMRLILRTLSVPGDSMWVEDPGFPLIRPVITQEGITLAPIPVDADGLNVAAGMRDCPQGRFALVTPAHQSPLGVALSLTRRRQLLAWAANVQAWIIEDDYDSEFRYHGKPLPPLKSLDAPQRVIYAGTFSKSLFPALRTAWLVVPIKQIEHFRQQASLMPCSVPLLWQHTLADFIRDGHFWRHLKKMRQHYAQRRLWIEEALAEQGFVVTLQKGGIQLVIEVEGDDKAQVAKANQAGLAVQALSRWRVVSSGKGGILLSFTNITSAGMAKQVACQLRQAIQ”, the “soluble on expression in E. coli” value was “not soluble”. In the case of “MIYSRSKLPSEGEILIATVKQVFDYGSYVSLDEYGGLQAFLPWSEVSSKWVKNIRDVLKENRKVIVKVIRVDRRKGTVDVSLKKVTDDERRKKNLQWKKIQRLDKILELVSQKLKLSEKDAWEQVAWKLEAKYGDPITAIEKAVKEGEKILIDAGVPEIWVKPLLEEASKHAEERKVKMSGLITVRTNEPLGVEKIKEVISKALENIEQDYESLLNIKIYTIGAPRYRVDVVGTNPKEASEALNQIISNLIKIGKEENVDISVVKK”, the “soluble on expression in E. coli” value is reported as “soluble”. With “MSLTANREAIDMARVAAGAAAAKLADDVVVIDVSGQLVITDCFVIASGSNERQVNAIVDEVEEKMRQAGYRPARREGAREGRWTLLDYRDIVVHIQHQDDRNFYALDRLWGDCPVVPVDLSANSAGAQEGHHHHHH” the “soluble on expression in E. coli” value was “soluble”. In the case of “MGSDKIHHHHHHMTTSITIGNFKGGVGKTTTCVTFSYLLNKAHRKTLLIDFDPQGNASEIIEKTFPVFKQKNSKSLTDGIKNLDLSESIAHVTDYLDLMPSDWSLSLLPDMLEDYKKSDRPLFLKTLLTKIRNDYDYILIDVPPTLSAYTNNAVLASDYVIMVMQTQEQSYSSSLKFVSYLQGLRKDYDKSFDLLGIIAYLVKKDGPVDHEVLKAANQAFGKALFHGNVFQRERVKRFGKSGIKDEDMWDKRALYMYQVVLDEALSRINLLEE”, the “soluble on expression in E. coli” value is reported as “not soluble”. In the case of “MSLNVSHFFPETFVSLVKDMLTKTDGSTTKAIETLIGGKAEIEVFQQNNIDYDKLSPEEARLFQRDDDILFRTSSLKTGDDYLSYNYVYVKTNLLPPAIKQDLQEERLPIGKIIAELESRREIFSTGDCLGKHFTQLVPVSADRTYAFKKYQIISGRQCMFYVCELFDLEKICKLTAGEGHHHHHH”, the “soluble on expression in E. coli” value is reported as “not soluble”. For “MTRPHQPRIDLNHGFLRFIRRNQVDRDEYNRVHEERKSEIRERIGSSDSSQDGEEKAQSNVYVPPHLRRQKKENEEKFSALKASRSQSQSDTGSEEGEGASGGGEASCPIQQKQKAFDENVRRQVRRRIERTHPTVDDICIVLANYSLQEAASKNSENSNEDLFELVLTLKSGEQKTIGVPRNTQAARLAKSLSREHHFSDSQCRNLRIFIEEQLELRFAREKSTATSSDASIPGSPTSSSESSIIEFSA”, the “soluble on expression in E. coli” value was “not soluble”. In the case of “MEAGFVSIGDVTFRDLEDEAIVELVRKGNTDALEYLIHKYKNFVRAKSRSYFLVGADREDIVQEGMIGLFKAIRDYKEDKLSSFKAFAELCITRQIITAIKTATRQKHIPLNSYVSLDKPIYDEESDRTLLDVISEAKVTDPEEMIISQEEYTDIESKISELLSDLERKVLSLYLDGRSYQEISEQLNRHVKSIDNALQRVKRKLERYMEMRESTTLNS”, the “soluble on expression in E. coli” value is reported as “not soluble”. For “MNVCRLYGEELQKSQSNTFEDYFNRSEVTYRDGGEERTLSVLYLRHFEAALLDWLPYESDPLFTANGRDIHLRDIIALVCLWKNPAYRQRKRVYIHDEEELRRYFAEVDAKTLQALVSEWAETGECRLPERSA”, the “soluble on expression in E. coli” value was “not soluble”. With “MSLRVENLRSSTYRNGPTGLPNRARFSEDLDAVLLQRTADSAATAIAVDLCGSDYFRDMVKALGWDYADGYVALAYKRLISKLPAGTALYRLDTTTFAFMVTTADPLRLSALCSKISKGFVAPLEHQGIPHTAVASIGAVLLETSYGAADTLRSLTTSVDVAREHCLTWSLYEREGHHHHHH” the “soluble on expression in E. coli” value was “not soluble”. With “MGSDKIHHHHHHVSATDTLDKTGTQTSAVRLGDLETPCLVLDADRMDRNIARLRDRIAGLGVTLRPHLKTAKSVEVARRVMATSEGPATVSTLKEAEFFADAGVRDIIYAVGIAPWKLAKVIELRKRGVDLAVVLDTVELAQAVAAASRESGMAIPALIEIDCDGHRSGVLPRDSERLLAIGKALVEGGELRGVLTHAGGSYAARGEEALRNAAEEERASVVNAAAILRDAGLPCPVVSVGSTPTAHHATDLTGVTEVRAGVFVFFDLVMTGIGICTVDDIAISVLATVIGHQREKGWILVDAGWMAMSQDRGTAKQVVNQGYGVVCKCDGTPYADLILADANQEHGIIMVRPGSDGTLPDLAIGDRVRILPNHACATGAQHRRYNVVHGTSDVVTGEWQRFGGW” the “soluble on expression in E. coli” value was “not soluble”. With “MSSSAPKYTTFQGSQNFRLRIVLATLSGKPIKIEKIRSGDLNPGLKDYEVSFLRLIESVTNGSVIEISYTGTTVIYRPGIIVGGASTHICPSSKPVGYFVEPMLYLAPFSKKKFSILFKGITASHNDAGIEAIKWGLMPVMEKFGVRECALHTLKRGSPPLGGGEVHLVVDSLIAQPITMHEIDRPIISSITGVAYSTRVSPSLVNRMIDGAKKVLKNLQCEVNITADVWRGENSGKSPGWGITLVAQSKQKGWSYFAEDIGDAGSIPEELGEKVACQLLEEISKSAAVGRNQLPLAIVYMVIGKEDIGRLRINKEQIDERFIILLRDIKKIFNTEVFLKPVDEADNEDMIATIKGIGFTNTSKKIA” the “soluble on expression in E. coli” value was “not soluble”. For “MSLPTNPFISLFGRSPIGPMQQHIAKAHECAAGLLPFFRAVIAEDWAQVEQVQQDMVRLEQEADRLKKHVRMHLPKSLFLPVPRSDLLELLSVQDKVANRAKDIAGLMLGRRMRIPLPLQGQMLAYVQRSVDASAQALRVVNELNELLETGFGGRETSLVESMVEELEAIENDTDRIQVEVRRELFRLESELPPVDVMFLYQIIEWIGDVADRAQRVGNRLEQLLAREGHHHHHH”, the “soluble on expression in E. coli” value was “soluble”. For “MSLASTFKFLVTSDNHLGYQERDSRRGDDSFTTFEECLRAARLEHEVDAILLAGDFFHDNKPSLGCLARTSSLLRSYVLGDKPISFTLLSDPKRNFPTHPVPLANFQDPNINVALPIFMIHGNHDDPVGGTSSIDILSTAGLVNYFGHTSSLDDIVVEPVLLKKGDTYIALYGLGNVRDDRLHRCFRMKKLHFVQPKTEPGKDWFKILLFHQNRGVRSGGNMKCGIYETMLAGHGMDLVIWGNEHEQQMEPSPSEGFDIIQPGSTILTSLSEHECNPKKYGVLEVRGGSYRVTGFPLRSIRPVVRRTVELWRDNPGCRTLDAVEDFLRSVVEQMIEEAEEQVSRIPDDVLKFHPNIKFPIMRLAVDFTDPDSTTFPQPNINRFGQQYMDIVVNPSELLRPIKPKQVPRVASSASATGGEAPVVPVPRLNTSDIRTKVAEVFNANARDACSLLSESEVSAAVYAFAEKGERDAIDERICELLSKCQKSVWVSMRREGHHHHHH”, the “soluble on expression in E. coli” value was “soluble”.
